Laboratory results reported in patent US20250034594A1, “RNA-GUIDED GENOME RECOMBINEERING AT KILOBASE SCALE” (THE BOARD OF TRUSTEES OF THE LELAND STANFORD JUNIOR …, priority 2021, published 2025).

B1: SSAP_5: SEQ ID NO: 174 (protein)
chain: ANELGIFSVDNLNMTTIKQYLDGGGKASDAELVLLINLCKQNNMNPFMKEVYFIKYGNQPAQIVVSRDFYRKRAFQNPNFVGIEVGVIVLNKDGVLEHNEGTFKTHEQELVGAWARVHLKNTEIPVYVAVSYDEYVQMKDGHPNKMWTNKPCTMLGKVAESQALRMAFPAEFSGTYGEEEYPEPEKEPREVNGVKEPDRAQIESFDKEDYAAKKIEELKEKAQPQKEVVEETGEVIDEEPLEGF
B2: SSAP_252: SEQ ID NO: 421; Bacteroides pyogenes DSM 20611 = JCM 6294 (protein)
chain: QVADPQSVLNSAVIAATLDLPINPNLGFAAIVPYNDRKSGKCIAQFQLMYKGLVELCLRSGQFASLIDEVVYEGQIVKKNKFTGEYIFDEDAKTSNKVIGYMAYFRLVNGFEKTFYMTSEEVTAHAKAYSQSFKSGYGVWKDNFDIMARKTVLKLLLSKYAPKSIEMQRAITFDQAAVKGDLTETNVDEAEIEYIDNESGSDKIKQAAEDAVIQSQQKTLL
modifications: Bacteroides pyogenes
B3: SSAP_270: SEQ ID NO: 439; Lactococcus sp. DD01 (protein, listed as Lactococcus sp.)
chain: ANLTPTQTVLKSDAAKRKFEEVLGKKTNGFVGSLLSLVGSTNLKNVDSNSVMTAAMKAATLDLPIEPSLGFAYVIPYGREAQFQIGYKGLIQLAIRSGQVTKLNAGPVYENQFIKYDSLFEELEIDFSMPQGVEIAGYFASMELANGFRKIIYWDKEKVTAHGKRFSKSFNRSSSPWQTDFDAMATKTVLKAMLSTYAPLSTEMQQAIVADNESATPKDATPVTDDLVLEAVEDSKQIEENEIINDQVASENYQEPQGEPEVLDLEL
B4: SSAP_49: SEQ ID NO: 218 (protein)
chain: TNNQLATQTKRNITTDPSLLTGADIKKYFDPQNLLTEKQVGQALALCKGRNLNPFANEVYIVAYTNRNGGKEFSLIVSKEAFLKRAAQCKDYEGFEAGVVVVDSEGVMHERKGAIMLPEDTLIGGWARVHRKNFKVPVEIVVSREEYDKKQSTWNTMPATMIRKVALVNALREAFPEDLGNMYTEDDGGETFDRIKDVTPQESREDVVARKMAEIEQFNKEQETNHADPEPAQTEETIQGELLDGELEY
B5: SSAP_138: SEQ ID NO: 307; unclassified Coprococcus (protein, listed as Coprococcus sp.)
chain: ANNIDLKQELAEQASKVPAKKDEEVKLTKSMTIPDMVKAMMPEIKKALPAVMTPERFTRIALSALNTTPALNQCTPMSFLAALMNAAQLGLEPNTPLGQAYLIPYKNHGTLECQFQIGYKGLIELAYRSGQMQTIQAQTVYENDEFAYQYGLEPVLVHRPAYSDRGEVKYFYGIFKTVNGGYGMAVMSRAEMDLYAKTYSKAYDSSYSPWKSNYEDMAKKTVIKQALKYAPIKTDFQRALSFDETIKKEISLDMSTVKNELLDVA
B6: SSAP_134: SEQ ID NO: 303; Andreesenia angusta (protein, listed as Andreesenia angusta)
chain: SNLKNQLANKAGGTATKKQPQTMQDWIKVMEPQIKKALPSVITAERFTRMALTAISTNPKLAECTPESFMGALMNAAQLGLEPNTPLGQAYLIPYGKSVQFQVGYKGLMELAQRSGQFKSIYAHTVYENDEFEVEYGLTQNIVHKPNFDDRGKPIGFYAVYKLTNGGENFVFMTQREVEEFGKAKSKTFNNGPWKTDFEAMAKKTVLKQLLKYAPIKVEFQREIAQDATIKTEIAEDMTEVPEEMVEAEYEVVEQNTMAEDADLKGTPFETK
B7: SSAP_17: SEQ ID NO: 186 (protein)
chain: ATNDELKNQLANKQNGGQVASAQSLDLKGLLEAPTMRKKFEKVLDKKAPQFLTSLLNLYNGDDYLQKTDPMTVVTSAMVAATLDLPIDKNLGYAWIVPYKGRAQFQLGYKGYIQLALRTGQYKSINVIEVRDGELLKWNRLTEEIELDLDNNTSEKVIGYCGYFQLINGFEKTVYWTRKEIEAHKKKFSKSDFGWKKDYDAMAKKTVLRNMLSKWGILSIDMQTAVTEDEAEPRERKDVTEDESIPDIIDAPITPSDTLEAGSEVQGSMI
B8: SSAP_214: SEQ ID NO: 383; Clostridium tunisiense (protein)
chain: TTKANVTSVKNALKEQIQVQQVAAQTDTSFQGVLTKQLQHQFKAIQSLVPKHVTPERLCRIGINAASRNPQLMNCTPETIVGAIVNCATLGLEPNLLGHAYIVPFYNNKTGKMEAQFQVGYKGALDLIRRTGAVSTLSAHEVYGPRSIFWTQYFY
modifications: Clostridium tunisiense
B9: SSAP_307: SEQ ID NO: 476; Acetobacterium dehalogenans (protein)
chain: CLRSWTRSFSNSVPLKIRFRLLYTAFLSQGSPLSSVNTTQSADKGSPIFFYAMFKTKDGGYGFEVMSVEDVRAHAKKYSQSFSSAYSPWSKNFEEMAKKTVLKKALKYAPLKSDFVRGIVVDETIKREISEDMYAAPSIEIEYEVDEDGVIQDEPTSNELTEAEK
modifications: Acetobacterium dehalogenans
B10: SSAP_278: SEQ ID NO: 447; Paraliobacillus ryukyuensis (protein, listed as Paraliobacillus ryukyuensis)
chain: ATNDTLKNQISNKKNNQVAEGKQGTTMKGLLNSPAVMKRFEEVLGKRANQFTASILSLYNNEKTLQKSEPMSVISSAMIAATLDLPIDKNLGYAWIVPYGNKAQFQLGYKGYIQLALRTGQYRNINVIEVYEGELVKWNRLTEELELDFEQKKSDKVIGYTGYFELINGFRKTVYWSKADIEKHKQKFSKSNFGWSNDWDAMAKKTVIRNMLNKWGILSIDMQKAYSTDEIEQEQESNDFIDGEWAEVSEDDITEAMNEV
B11: SSAP_122: SEQ ID NO: 291; Clostridium transplantifaecale (protein)
chain: TDVKEELARKAGNTGKQEIRLNKNMSIPDMVKVLEPEIKRALPSVLTPERFTRMALSAINNTPKLAECSPMSFIAALMNAAQLGLEPNTPLGQAYLIPYKNKNQLECQFQIGYKGYIDLAYRTGQVQMIQAQAVHEFDYFEYEYGLTPKLVHRPGEGERGEITYFYGLFKMINGGFGFEVMNRAAMDAFAKQYSQSINSKYSPWNSQYEEMAKKTIIKKALKYGPVKSDFQKAISMDESIKTELSIDMSEVRNEDLIDGEFEEAA
modifications: Clostridium transplantifaecale
B12: SSAP_268: SEQ ID NO: 437; Oceanobacillus sp. E9 (protein, listed as Oceanobacillus sp.)
chain: ATNDSLKNQLSSKQGNQNTPSGYTIKQLMGAESVKKRFEEMLDSKASQFMASVINLVNGDTNLQKCDQMSVVSSAMVAATLDLPIDRNLGYAWVIPYGNQATFQLGYKGYIQLALRSGQYRNINVIEVYEGELQSFNRLTEEIELDFEKRTSDKVIGYTGFFELINGFRKTVYWSKAEIEKHKNKFSKSGFGWKNDWDAMAKKTVVRNMLNKWGILSIDMQKAYVEETKDPSEPNGEVIDLNLTEDELTAAQEQFSDENANE
B13: SSAP_159: SEQ ID NO: 328; Clostridium hathewayi CAG: 224 (protein, listed as Clostridium hathewayi)
chain: ANDIRGELARRASGTETQAVKLTKNMSIPDMIKALEPEIKRALPTILTPERFTRIALSAINNTPKLAECSPMSFIAALMNAAQLGLEPNTPLGQAFLIPYKVKGSLECQFQIGYRGMIDLAYRNERVQSIEAHTVYENDVFEYELGLNPRLVHIPTMEEPGDPIAFYGIFRLDNGGFRFEVMNKNAIDAYAARYSKAYDSASSPWKNNYESMACKTVLKQLLKYSPMKSEFQKAVSMDESVKTELSVDMSEVQNVNLIEETQEDAA

system: gene editing with dCas9; assay: Screen of 322 new SSAP proteins, gene editing activity with dCas9 (Table 5); format: cell-based; design: dCas9 with SSAP activity: scale not given here; settings: not given
Method in brief: (§1)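 Read-out is gene editing activity. Candidates come from sequence data mining, are made synthetically, and are tested alongside either nuclease-active Cas9 or catalytically dead dCas9.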

| Molecule | dCas9 with SSAP activity |
| --- | --- |
| B1 | −0.854 |
| B2 | −0.876 |
| B3 | −0.896 |
| B4 | −0.987 |
| B5 | −1.000 |
| B6 | −1.053 |
| B7 | −1.088 |
| B8 | −1.088 |
| B9 | −1.100 |
| B10 | −1.129 |
| B11 | −1.142 |
| B12 | −1.151 |
| B13 | −1.156 |

same assay, conditions: normalized

| Molecule | dCas9 with SSAP activity (normalized) |
| --- | --- |
| B1 | −0.392 |
| B2 | −0.635 |
| B3 | −0.293 |
| B4 | −0.289 |
| B5 | −0.320 |
| B6 | −0.424 |
| B7 | −0.491 |
| B8 | −1.120 |
| B9 | −0.907 |
| B10 | −1.000 |
| B11 | −0.148 |
| B12 | −0.400 |
| B13 | −0.358 |

system: gene editing with Cas9 and dCas9; assay: Screen of 322 new SSAP proteins, activity across all experiments (Cas9 and dCas9, Table 5); format: cell-based; design: scale not given here; settings: not given
Method in brief: as §1

| Molecule | Activity across all experiments |
| --- | --- |
| B1 | −0.440 |
| B2 | −0.575 |
| B3 | −0.371 |
| B4 | −0.751 |
| B5 | −1.214 |
| B6 | −1.168 |
| B7 | −0.687 |
| B8 | −0.758 |
| B9 | −1.095 |
| B10 | −0.030 |
| B11 | 0.144 |
| B12 | −0.656 |
| B13 | 0.233 |

system: gene editing with Cas9; assay: Screen of 322 new SSAP proteins, gene editing activity with Cas9 (Table 5); format: cell-based; design: Cas9 with SSAP activity: scale not given here; settings: not given
Method in brief: as §1

| Molecule | Cas9 with SSAP activity |
| --- | --- |
| B1 | −0.026 |
| B2 | −0.275 |
| B3 | 0.154 |
| B4 | −0.515 |
| B5 | −1.429 |
| B6 | −1.284 |
| B7 | −0.287 |
| B8 | −0.428 |
| B9 | −1.090 |
| B10 | 1.070 |
| B11 | 1.429 |
| B12 | −0.160 |
| B13 | 1.622 |

same assay, conditions: normalized

| Molecule | Cas9 with SSAP activity (normalized) |
| --- | --- |
| B1 | −0.032 |
| B2 | −0.560 |
| B3 | 0.174 |
| B4 | −0.176 |
| B5 | −0.887 |
| B6 | −1.104 |
| B7 | −0.195 |
| B8 | −0.545 |
| B9 | −2.185 |
| B10 | 2.231 |
| B11 | 0.558 |
| B12 | −0.383 |
| B13 | 2.756 |
